Laboratory results reported in patent US20040123344A1, “Novel gene encoding an f-box protein which regulates leaf longevity in arabidopsis thaliana and mutant gene thereof” (priority 2000, published 2004).

T1: ASK1(1-160) (Arabidopsis thaliana, UniProt Q39255)
T1 construct: constructing the plasmid pGAD424-ASK1(1-160)[3] expressing fusion protein of ASK1 and GAL4-4AD; expressed in transfected cells; host or cells: Saccharomyces cerevisiae HF7c
T1 sequence (Q39255 1-160): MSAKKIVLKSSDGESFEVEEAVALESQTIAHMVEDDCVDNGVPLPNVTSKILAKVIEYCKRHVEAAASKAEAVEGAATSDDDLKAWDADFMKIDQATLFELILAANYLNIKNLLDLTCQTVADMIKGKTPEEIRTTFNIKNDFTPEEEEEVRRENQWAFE

T2: GST-ASK1 fusion protein (Arabidopsis thaliana, UniProt Q39255)
T2 construct: made in house; host or cells: Escherichia coli BL21(DE3) pLysS
T2 sequence (Q39255 1-160): T1 sequence (Q39255 1-160)

B1: ORE9(1-49): fragment of ORE9 containing N-terminal 1-49th amino acids corresponding to the F-box region (protein)
chain: MKLLSSIEQACDICRLKKLKCSKEKPKCAKCLKNNWECRYSPKTKRSPLTRAHLTEVESRLERLEQLFLLIFPREDLDMILKMDSLQDIKALLTGLFVQDNVNKDAVTDRLASVETDMPLTLRQHRISATSSSEESSNKGQRQLTVSMASTTLSDLPDVILSTISSLVSDSRARNSLSLVSHKFLALERSTRSHLT
B2: ORE9 (50-693): fragment of ORE9 containing 50-693th amino acids from which the F-box region was removed (protein)
chain: MKLLSSIEQACDICRLKKLKCSKEKPKCAKCLKNNWECRYSPKTKRSPLTRAHLTEVESRLERLEQLFLLIFPREDLDMILKMDSLQDIKALLTGLFVQDNVNKDAVTDRLASVETDMPLTLRQHRISATSSSEESSNKGQRQLTVSIRGNARDLSLVPDCFRSISHLDLSFLSPWGHTLLASLPIDHQNLLALRLKFCFPFVESLNVYTRSPSSLELLLPQWPRIRHIKLLRWHQRASQIPTGGDFVPIFEHCGGFLESLDLSNFYHWTEDLPPVLLRYADVAARLTRLDLLTASFTEGYKSSEIVSITKSCPNLKTFRVACTFDPRYFEFVGDETLSAVATSSPKLTLLHMVDTASLANPRAIPGTEAGDSAVTAGTLIEVFSGLPNLEELVLDVGKDVKHSGVALEALNSKCKKLRVLKLGQFQGVCSATEWRRLDGVALCGGLQSLSIKNSGDLTDMGLVAIGRGCCKLTTFEIQGCENVTVDGLRTMVSLRSKTLTDVRISCCKNLDTAASLKAIEPICDRIKRLHIDCVWSGSEDEEVEGRVETSEADHEEEDDGYERSQKRCKYSFEEEHCSTSDVNGFCSEDRVWEKLEYLSLWINVGEFLTPLPMTGLDDCPNLEEIRIKIEGDCRGKRRPAEPEFGLSCLALYPKLSKMQLDCGDTIGFALTAPPMQMDLSLWERFFLTGIGSLSLSELDYWPPQDRDVNQRSLSLPGAGLLQECLTLRKLFIHGTAHEHFMNFLLRIPNLRDVQLRADYYPAPENDMSTEMRVGSCSRFEDQLNSRNIID
B3: ORE9 (1-693): complete ORE9 protein, 693 amino acids, F-box motif and 18 LRRs, SEQ ID NO: 2 (protein, listed as Arabidopsis thaliana)
chain: MASTTLSDLPDVILSTISSLVSDSRARNSLSLVSHKFLALERSTRSHLTIRGNARDLSLVPDCFRSISHLDLSFLSPWGHTLLASLPIDHQNLLALRLKFCFPFVESLNVYTRSPSSLELLLPQWPRIRHIKLLRWHQRASQIPTGGDFVPIFEHCGGFLESLDLSNFYHWTEDLPPVLLRYADVAARLTRLDLLTASFTEGYKSSEIVSITKSCPNLKTFRVACTFDPRYFEFVGDETLSAVATSSPKLTLLHMVDTASLANPRAIPGTEAGDSAVTAGTLIEVFSGLPNLEELVLDVGKDVKHSGVALEALNSKCKKLRVLKLGQFQGVCSATEWRRLDGVALCGGLQSLSIKNSGDLTDMGLVAIGRGCCKLTTFEIQGCENVTVDGLRTMVSLRSKTLTDVRISCCKNLDTAASLKAIEPICDRIKRLHIDCVWSGSEDEEVEGRVETSEADHEEEDDGYERSQKRCKYSFEEEHCSTSDVNGFCSEDRVWEKLEYLSLWINVGEFLTPLPMTGLDDCPNLEEIRIKIEGDCRGKRRPAEPEFGLSCLALYPKLSKMQLDCGDTIGFALTAPPMQMDLSLWERFFLTGIGSLSLSELDYWPPQDRDVNQRSLSLPGAGLLQECLTLRKLFIHGTAHEHFMNFLLRIPNLRDVQLRADYYPAPENDMSTEMRVGSCSRFEDQLNSRNIID
B4: ORE9 (1-327): part of ORE9 (1-327) containing the F-box region (protein, UniProt Q9SIM9 1-327, looked up, fragment)
chain: MASTTLSDLPDVILSTISSLVSDSRARNSLSLVSHKFLALERSTRSHLTIRGNARDLSLVPDCFRSISHLDLSFLSPWGHTLLASLPIDHQNLLALRLKFCFPFVESLNVYTRSPSSLELLLPQWPRIRHIKLLRWHQRASQIPTGGDFVPIFEHCGGFLESLDLSNFYHWTEDLPPVLLRYADVAARLTRLDLLTASFTEGYKSSEIVSITKSCPNLKTFRVACTFDPRYFEFVGDETLSAVATSSPKLTLLHMVDTASLANPRAIPGTEAGDSAVTAGTLIEVFSGLPNLEELVLDVGKDVKHSGVALEALNSKCKKLRVLKLGQ

Tests used:
ASK1(1-160) = molecular target: T1, ASK1(1-160); assay: Yeast two-hybrid assay with ASK1; type: cell-based; conditions: HF7c yeast; for binding with ASK1 in yeast two-hybrid assay: GAL4-BD fusion
From the text: As expression vectors of expressing GAL4 DNA binding domain (GAL4-BD) and ORE9 fusion protein, plasmids pGBT9-ORE9 (1-49) and pGBT9-ORE9 (50-693) were constructed. The plasmid pGBT9-ORE9 expresses a fragment of ORE9 containing N-terminal 1-49th amino acids corresponding to an F-box region of ORE9, and the plasmid pGBT9-ORE9 (50-693) expresses a fragment of ORE9 containing 50-693th amino acids from which the F-box region was removed.
First, the gene encoding the ORE9 (1-49) fragment was amplified by PCR using a primer represented by SEQ ID NO: 10 and SEQ ID NO: 11, and then inserted into BamHI and PstI restriction enzyme sites of pGBT9 (Clontech, USA) containing a 4-BD gene and a tryptophan auxotrophic selection marker gene (TRP1), thereby constructing the plasmid pGBT9-ORE9 (1-49). Similarly, the plasmid pGBT 9-ORE9 (50-693) was constructed, which expresses an ORE9 (50-693) fragment and a GAL4-BD fusion protein. In this case, oligonucletides represented by SEQ ID NO: 12 and SEQ ID NO: 13 were used as PCR primers to amplify the gene encoding the ORE9 (50-693) fragment.
Meanwhile, regarding ASK1(1-160) and ASK2(1-172) proteins used for identification of binding, pGAD424-ASK1(1-160) and pGAD424-ASK2(1-172) were constructed in such a manner that ASK1(1-160) and ASK2(1-172) are expressed in the form of a fusion protein with a […]. pGTE-ASK1(1-160) containing an ASK1(1-160) gene was digested with BamHI and PstI, and then inserted into pGAD424 (Clontech, USA) containing a GAL4-AD gene and a leucine auxotrophic selection marker gene (LEU2), thereby constructing the plasmid pGAD424-ASK1(1-160)[3] expressing fusion protein of ASK1 and GAL4-4AD. Similarly, the plasmid pGAD424-ASK2(1-172)[4] was constructed by inserting a BamHI/PstI fragment of pGTE-ASK2(1-172) into pGAD424.
Yeast strains, HF7c, were cultured in an YPD (yeast extract, peptone, dextrose) medium or a synthetic minimal medium (SD) containing 2% dextrose.
The HF7c yeast strains grown in the medium were transformed with different combinations of the vectors constructed in the above Example 6-1) ([1+3], [2+3] and [1+4]; see the left upper portion of FIG. 7b), respectively, by the lithium acetate method (Feilotter et al., 1994). The transformants were selected in a synthetic minimal medium containing 2% dextrose. The transformants were cultured in a SD medium from which tryptophan and leucine were removed (see the right upper portion of FIG. 7b), and in a SD medium from which tryptophan, leucine and histidine were removed and which contains 2 mM 3-amino-1,2,4-triazole (3-AT) (see the left lower portion of FIG. 7b).
The transformants were grown in a synthesis minimal medium, and the grown yeast colonies were examined for β-galactosidase activities on a filter paper. […]

GST-ASK1 fusion protein = molecular target: T2, GST-ASK1 fusion protein; assay: In vitro binding assay with GST-ASK1 fusion protein; conditions: 35S-labeled in vitro translation product; glutathione beads; GST as negative control
From the text: In order to examine that ORE9 protein or derivatives thereof directly bind with ASK1, a GST-ASK1 fusion protein and a ^35S-labeled ORE9 protein produced by in vitro translation were subjected to in vitro binding assay. To obtain a glutathione S-transferase (GST) protein and a GST-ASK1 fusion protein, a vector pGEX (APBiotech, Co.) and a vector pGEX-ASK1 were constructed, which express the above proteins, respectively. Artificial sequences represented by SEQ ID NO: 14 and SEQ ID NO: 15 were used as PCR primers to amplify a gene encoding the ASK1 fragment. The resulting PCR product was digested with EcoRI and NcoI restriction enzymes, and inserted into the restriction enzyme sites of the pGEX vector. Escherichia coli BL21(DE3) pLysS was transformed with the resulting two vectors, and GST and GST-ASK1 fusion proteins were expressed. The GST and GST-ASK1 fusion proteins were purified by chromatography with glutathione-Sepharose 4B beads. The purified proteins was subjected to electrophoresis with SDS-polyacryamide gets, dyed with Coomassie blue, and measured for their amount. GST and GST-ASK1 fusion proteins of the same amount were added to glutathione beads, which had been previously washed with 10-fold volume of B buffer (20 mM […], pH 7.6, 150 mM sodium chloride, 10% glycerol, 0.5% NP-40, 1 mM DTT) three times. Then, the resulting proteins were adsorbed 4° C. for one hour using a rotating mixer. The provided beads were washed with 1 ml B buffer three times, and then stored in a state where the ratio of slurries relative to B buffer is 50%.
Meanwhile, a radioactivity-labeled ORE9 (1-693), the mutant type ore9 and ORE9 derivatives (1-327 and 50-693) were prepared using the in vitro transcription/translation system (Promega, USA) and [^35S]-methionine (DuPont NEN, USA). The proteins were quantitatively analyzed with SDS-PAGE and BAS radioanalytic imaging system (Japan). Then, the respective ^35S-labeled translation products of the same amount were mixed with 60 μl GST-adsorbed beads or GST-ASK1 fusion protein-absorbed beads, contained in 1 ml GB buffer (final concentration: 20 mM Tris-HCl, pH 7.5, 0.15% NP-40, 150 mM NaCl, 1 mM EDTA). The resulting beads were cultured in a rotating mixer at 4° C. for two hours, and then washed with 1 ml GB buffer four times. The washed beads were added with 30 μl of 2×SDS sample solutions, boiled for three minutes and then isolated with SDS-PAGE. The resulting gels were dried to dryness, and then exposed to X-ray film.

Molecule	growth of transformed yeast in histidine deficient medium (ASK1(1-160); GAL4-BD fusion with GAL4-AD-ASK1(1-160), SD medium without tryptophan, leucine, histidine, 2 mM 3-AT)	β-galactosidase activity of transformed yeast (ASK1(1-160); with ASK1(1-160) plasmid, X-gal filter assay)	binding (co-precipitation) with GST-ASK1 (GST-ASK1 fusion protein)	binding with ASK1 in yeast two-hybrid assay (ASK1(1-160))
B1	grown in the histidine deficient medium	exhibit the β-galactosidase activity	–	–
B2	–	–	fails to bind with GST-ASK1	fails to bind with ASK1
B3	–	–	directly bound to ASK1	did not exhibit positive signals for binding to ASK1
B4	–	–	co-precipitated with the GST-ASK1 fusion protein	–
